# Experimental data taken from US10962518B2, “Dissolution test for sensitive drugs” (ROYAN INSTITUTE, priority 2017, dated 2021).
# Where two headings read alike, the source gives them in different places.
# Assays:
# [1] = cited from earlier work; for tstability of drug: at 37° C.
# [2] = hGH stability tests in phosphate buffer (0.01 ppm hGH solution, stability versus time); assay type: physicochemical; conditions: 0.01 ppm hGH in 0.05 M phosphate buffer pH=7.4
# Method: In this example, exemplary systems and methods were used for performing dissolution tests on human growth hormone (hGH), consistent with an exemplary embodiment of the present disclosure. The release performance of hGH was evaluated for a 14-day period. First, the stability of hGH in a phosphate buffer at 37±1° C. was tested. To this end, a 0.01 ppm hGH solution in a 0.05 M phosphate buffer with a pH=7.4 was prepared. The prepared hGH solution was maintained at a temperature of approximately 37±1° C. and stability analyses were performed at 0, 1, 2, 3, 4, 6, 12, and 24 hours.
# FIG. 4 illustrates an hGH stability versus time graph obtained from stability tests performed at 37±1° C., consistent with one or more exemplary embodiments of the present disclosure. […] Therefore, if a dissolution test was to be performed by available USP apparatuses, the hGH solution would have to be prepared, sampled and analyzed every 2 hours, which means for a dissolution evaluation that needs to be performed during a 14-day period, at least 168 dissolution tests must be performed.
# The stability of hGH was then tested in a phosphate buffer at 5±2° C. To this end, a 0.01 ppm hGH solution in a 0.05 M phosphate buffer with a pH=7.4 was prepared. The prepared hGH solution was maintained at a temperature of approximately 5±2° C. and stability analyses were performed at 0, 1, 2, 3, 4, and 5 days. […]
compound,measurement,setting,value
"O=C1CN(/N=C/c2ccc(-c3ccc([N+](=O)[O-])cc3)o2)C(=O)[N-]1.[Na+] [Dantrolene, dantrolene sodium]",tstability of drug,[1]; Buffer with pH 7.4,1 h
same,time for which the drug is stable in the dissolution medium,"[1]; phosphate buffer with a pH of 7.4, approximately 37° C.",1 h
COc1ccc2[nH]c([S+]([O-])Cc3ncc(C)c(OC)c3C)nc2c1 (stereo not shown) [Omeprazole],tstability of drug,[1]; phosphate buffer pH 7.5,<10 h
"IGF-I: IGF-I, a drug listed in Table 2 with serum as its dissolution medium",tstability of drug,[1]; serum,<10 h
"hGH: human growth hormone (hGH), the temperature-sensitive drug used in the Example",time for which the hGH solution is stable,"[2]; 5±2° C., analyses at 0-5 days (FIG. 5)",1 days
same,time for which the hGH solution is stable,"[2]; 37±1° C., analyses at 0-24 hours (FIG. 4)",0.083 days
same,tstability of drug,[1]; PBS buffer pH = 7.4,1 h
